Laboratory results as given in US20160272693A1 (ZEALAND PHARMA A S, published 2016).
*1 amine or outer side, *2 acyl side, *3 side chain or, on linkers, in order; H or OH if unused. Bridges are numbered along the chain shown (N, C = ends). [ ]: non-standard residue; d: D form. The star is where a group is joined. C20 diacid = O=C(O)CCCCCCCCCCCCCCCCCCC(=O)*; γGlu = O=C(O)[C@H](CCC(=O)[*:2])N[*:1]; Hyp = O=C(O)[C@@H]1C[C@@H](O)CN1; NMeI = CC[C@H](C)[C@H](NC)C(=O)O; Sar = CNCC(=O)O

T1: human amylin receptor 3 (hAMYR3), hCTR2 co-expressed with human receptor activity modifying protein 3 (hRAMP3) (human, UniProt P30988 25-474; O60896 24-148)
T1 sequence (looked up) 1: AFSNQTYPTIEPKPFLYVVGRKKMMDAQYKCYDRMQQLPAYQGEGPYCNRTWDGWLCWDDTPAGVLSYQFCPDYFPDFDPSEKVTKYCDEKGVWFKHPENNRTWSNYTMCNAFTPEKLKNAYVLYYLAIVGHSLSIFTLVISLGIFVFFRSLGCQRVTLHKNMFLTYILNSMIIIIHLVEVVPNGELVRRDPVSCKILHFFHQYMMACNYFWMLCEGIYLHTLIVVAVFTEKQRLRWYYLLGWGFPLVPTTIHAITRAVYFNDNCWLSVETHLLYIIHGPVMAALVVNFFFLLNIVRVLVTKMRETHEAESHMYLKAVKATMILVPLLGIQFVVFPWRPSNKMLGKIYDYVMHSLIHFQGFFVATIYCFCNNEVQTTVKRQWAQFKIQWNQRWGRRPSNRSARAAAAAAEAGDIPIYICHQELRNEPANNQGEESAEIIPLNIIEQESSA
T1 sequence (looked up) 2: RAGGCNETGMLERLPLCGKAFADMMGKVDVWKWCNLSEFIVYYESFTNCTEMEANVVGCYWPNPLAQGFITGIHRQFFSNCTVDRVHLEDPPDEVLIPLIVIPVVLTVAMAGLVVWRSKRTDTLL


molecular target: T1, human amylin receptor 3 (hAMYR3), hCTR2 …; assay: cell-based or functional assay

hAMYR3 EC50 (nM); cAMP induction | Binder
0.61 nM | {C20 diacid-γGlu}-RCGTATCATERLANFLVRSSF[Sar]A[NMeI]LSSTEVGSNT[Hyp]-NH2 (disulfide 2-7; SMILES CC[C@H](C)[C@@H](C(=O)N[C@@H](CC(C)C)C(=O)N[C@@H](CO)C(=O)N[C@@H](CO)C(=O)N[C@H](C(=O)N[C@@H](CCC(=O)O)C(=O)N[C@H](C(=O)NCC(=O)N[C@@H](CO)C(=O)N[C@@H](CC(N)=O)C(=O)N[C@H](C(=O)N1C[C@H](O)C[C@H]1C(N)=O)[C@@H](C)O)C(C)C)[C@@H](C)O)N(C)C(=O)[C@H](C)NC(=O)CN(C)C(=O)[C@H](Cc1ccccc1)NC(=O)[C@H](CO)NC(=O)[C@H](CO)NC(=O)[C@H](CCCNC(=N)N)NC(=O)[C@@H](NC(=O)[C@H](CC(C)C)NC(=O)[C@H](Cc1ccccc1)NC(=O)[C@H](CC(N)=O)NC(=O)[C@H](C)NC(=O)[C@H](CC(C)C)NC(=O)[C@H](CCCNC(=N)N)NC(=O)[C@H](CCC(=O)O)NC(=O)[C@@H](NC(=O)[C@H](C)NC(=O)[C@@H]1CSSC[C@H](NC(=O)[C@H](CCCNC(=N)N)NC(=O)CC[C@H](NC(=O)CCCCCCCCCCCCCCCCCCC(=O)O)C(=O)O)C(=O)NCC(=O)N[C@@H]([C@@H](C)O)C(=O)N[C@@H](C)C(=O)N[C@@H]([C@@H](C)O)C(=O)N1)[C@@H](C)O)C(C)C) [[19CD]-isoGlu-R-C( )-GTAT-C( )-ATERLANFLVRSSF-Gly(Me)-A-Ile(Me)-LSSTEVGSNT-Hyp-NH2 (Compd. 17)]
0.33 nM | {C20 diacid-γGlu}-RCNTATCATQRLAHFLHRSVF[Sar]A[NMeI]LSSTEVGSETP-NH2 (disulfide 2-7; SMILES CC[C@H](C)[C@@H](C(=O)N[C@@H](CC(C)C)C(=O)N[C@@H](CO)C(=O)N[C@@H](CO)C(=O)N[C@H](C(=O)N[C@@H](CCC(=O)O)C(=O)N[C@H](C(=O)NCC(=O)N[C@@H](CO)C(=O)N[C@@H](CCC(=O)O)C(=O)N[C@H](C(=O)N1CCC[C@H]1C(N)=O)[C@@H](C)O)C(C)C)[C@@H](C)O)N(C)C(=O)[C@H](C)NC(=O)CN(C)C(=O)[C@H](Cc1ccccc1)NC(=O)[C@@H](NC(=O)[C@H](CO)NC(=O)[C@H](CCCNC(=N)N)NC(=O)[C@H](Cc1c[nH]cn1)NC(=O)[C@H](CC(C)C)NC(=O)[C@H](Cc1ccccc1)NC(=O)[C@H](Cc1c[nH]cn1)NC(=O)[C@H](C)NC(=O)[C@H](CC(C)C)NC(=O)[C@H](CCCNC(=N)N)NC(=O)[C@H](CCC(N)=O)NC(=O)[C@@H](NC(=O)[C@H](C)NC(=O)[C@@H]1CSSC[C@H](NC(=O)[C@H](CCCNC(=N)N)NC(=O)CC[C@H](NC(=O)CCCCCCCCCCCCCCCCCCC(=O)O)C(=O)O)C(=O)N[C@@H](CC(N)=O)C(=O)N[C@@H]([C@@H](C)O)C(=O)N[C@@H](C)C(=O)N[C@@H]([C@@H](C)O)C(=O)N1)[C@@H](C)O)C(C)C) [[19CD]-isoGlu-R-C( )-NTAT-C( )-ATQRLAHFLHRSVF-Gly(Me)-A-Ile(Me)-LSSTEVGSETP-NH2 (Compd. 20)]
0.41 nM | {C20 diacid}-[γGlu]RCGTATCATERLAHFLTRSSF[Sar]A[NMeI]LSSTEVGSNT[Hyp]-NH2 (disulfide 3-8; SMILES CC[C@H](C)[C@@H](C(=O)N[C@@H](CC(C)C)C(=O)N[C@@H](CO)C(=O)N[C@@H](CO)C(=O)N[C@H](C(=O)N[C@@H](CCC(=O)O)C(=O)N[C@H](C(=O)NCC(=O)N[C@@H](CO)C(=O)N[C@@H](CC(N)=O)C(=O)N[C@H](C(=O)N1C[C@H](O)C[C@H]1C(N)=O)[C@@H](C)O)C(C)C)[C@@H](C)O)N(C)C(=O)[C@H](C)NC(=O)CN(C)C(=O)[C@H](Cc1ccccc1)NC(=O)[C@H](CO)NC(=O)[C@H](CO)NC(=O)[C@H](CCCNC(=N)N)NC(=O)[C@@H](NC(=O)[C@H](CC(C)C)NC(=O)[C@H](Cc1ccccc1)NC(=O)[C@H](Cc1c[nH]cn1)NC(=O)[C@H](C)NC(=O)[C@H](CC(C)C)NC(=O)[C@H](CCCNC(=N)N)NC(=O)[C@H](CCC(=O)O)NC(=O)[C@@H](NC(=O)[C@H](C)NC(=O)[C@@H]1CSSC[C@H](NC(=O)[C@H](CCCNC(=N)N)NC(=O)CC[C@H](NC(=O)CCCCCCCCCCCCCCCCCCC(=O)O)C(=O)O)C(=O)NCC(=O)N[C@@H]([C@@H](C)O)C(=O)N[C@@H](C)C(=O)N[C@@H]([C@@H](C)O)C(=O)N1)[C@@H](C)O)[C@@H](C)O) [[19CD]-isoGlu-R-C( )-GTAT-C( )-ATERLAHFLTRSSF-Gly(Me)-A-Ile(Me)-LSSTEVGSNT-Hyp-NH2 (Compd. 18)]
0.59 nM | {C20 diacid}-[γGlu]RCGTATCATERLAHFLVRSSF[Sar]A[NMeI]LSSTEVGSETP-NH2 (disulfide 3-8; SMILES CC[C@H](C)[C@@H](C(=O)N[C@@H](CC(C)C)C(=O)N[C@@H](CO)C(=O)N[C@@H](CO)C(=O)N[C@H](C(=O)N[C@@H](CCC(=O)O)C(=O)N[C@H](C(=O)NCC(=O)N[C@@H](CO)C(=O)N[C@@H](CCC(=O)O)C(=O)N[C@H](C(=O)N1CCC[C@H]1C(N)=O)[C@@H](C)O)C(C)C)[C@@H](C)O)N(C)C(=O)[C@H](C)NC(=O)CN(C)C(=O)[C@H](Cc1ccccc1)NC(=O)[C@H](CO)NC(=O)[C@H](CO)NC(=O)[C@H](CCCNC(=N)N)NC(=O)[C@@H](NC(=O)[C@H](CC(C)C)NC(=O)[C@H](Cc1ccccc1)NC(=O)[C@H](Cc1c[nH]cn1)NC(=O)[C@H](C)NC(=O)[C@H](CC(C)C)NC(=O)[C@H](CCCNC(=N)N)NC(=O)[C@H](CCC(=O)O)NC(=O)[C@@H](NC(=O)[C@H](C)NC(=O)[C@@H]1CSSC[C@H](NC(=O)[C@H](CCCNC(=N)N)NC(=O)CC[C@H](NC(=O)CCCCCCCCCCCCCCCCCCC(=O)O)C(=O)O)C(=O)NCC(=O)N[C@@H]([C@@H](C)O)C(=O)N[C@@H](C)C(=O)N[C@@H]([C@@H](C)O)C(=O)N1)[C@@H](C)O)C(C)C) [[19CD]-isoGlu-R-C( )-GTAT-C( )-ATERLAHFLVRSSF-Gly(Me)-A-Ile(Me)-LSSTEVGSETP-NH2 (Compd. 22)]

The next lines start with the binder.

Binder | hAMYR3 EC50 (nM); cAMP induction
{C20 diacid-γGlu}-RCNTATCATQRLAHFLHRVSF[Sar]A[NMeI]LSSTEVGSETP-NH2 (disulfide 2-7; SMILES CC[C@H](C)[C@@H](C(=O)N[C@@H](CC(C)C)C(=O)N[C@@H](CO)C(=O)N[C@@H](CO)C(=O)N[C@H](C(=O)N[C@@H](CCC(=O)O)C(=O)N[C@H](C(=O)NCC(=O)N[C@@H](CO)C(=O)N[C@@H](CCC(=O)O)C(=O)N[C@H](C(=O)N1CCC[C@H]1C(N)=O)[C@@H](C)O)C(C)C)[C@@H](C)O)N(C)C(=O)[C@H](C)NC(=O)CN(C)C(=O)[C@H](Cc1ccccc1)NC(=O)[C@H](CO)NC(=O)[C@@H](NC(=O)[C@H](CCCNC(=N)N)NC(=O)[C@H](Cc1c[nH]cn1)NC(=O)[C@H](CC(C)C)NC(=O)[C@H](Cc1ccccc1)NC(=O)[C@H](Cc1c[nH]cn1)NC(=O)[C@H](C)NC(=O)[C@H](CC(C)C)NC(=O)[C@H](CCCNC(=N)N)NC(=O)[C@H](CCC(N)=O)NC(=O)[C@@H](NC(=O)[C@H](C)NC(=O)[C@@H]1CSSC[C@H](NC(=O)[C@H](CCCNC(=N)N)NC(=O)CC[C@H](NC(=O)CCCCCCCCCCCCCCCCCCC(=O)O)C(=O)O)C(=O)N[C@@H](CC(N)=O)C(=O)N[C@@H]([C@@H](C)O)C(=O)N[C@@H](C)C(=O)N[C@@H]([C@@H](C)O)C(=O)N1)[C@@H](C)O)C(C)C) [[19CD]-isoGlu-R-C( )-NTAT-C( )-ATQRLAHFLHRVSF-Gly(Me)-A-Ile(Me)-LSSTEVGSETP-NH2 (Compd. 21)] | 0.23 nM
{C20 diacid-γGlu}-RCNTATCATQRLAHFLHRSSF[Sar]A[NMeI]LSSTEVGSETP-NH2 (disulfide 2-7) [[19CD]-isoGlu-R-C( )-NTAT-C( )-ATQRLAHFLHRSSF-Gly(Me)-A-Ile(Me)-LSSTEVGSETP-NH2 (Compd. 2)] | 0.12 nM
{C20 diacid}-[γGlu]RCGTATCATERLAHFLKRSSF[Sar]A[NMeI]LSSTEVGSNT[Hyp]-NH2 (disulfide 3-8; SMILES CC[C@H](C)[C@@H](C(=O)N[C@@H](CC(C)C)C(=O)N[C@@H](CO)C(=O)N[C@@H](CO)C(=O)N[C@H](C(=O)N[C@@H](CCC(=O)O)C(=O)N[C@H](C(=O)NCC(=O)N[C@@H](CO)C(=O)N[C@@H](CC(N)=O)C(=O)N[C@H](C(=O)N1C[C@H](O)C[C@H]1C(N)=O)[C@@H](C)O)C(C)C)[C@@H](C)O)N(C)C(=O)[C@H](C)NC(=O)CN(C)C(=O)[C@H](Cc1ccccc1)NC(=O)[C@H](CO)NC(=O)[C@H](CO)NC(=O)[C@H](CCCNC(=N)N)NC(=O)[C@H](CCCCN)NC(=O)[C@H](CC(C)C)NC(=O)[C@H](Cc1ccccc1)NC(=O)[C@H](Cc1c[nH]cn1)NC(=O)[C@H](C)NC(=O)[C@H](CC(C)C)NC(=O)[C@H](CCCNC(=N)N)NC(=O)[C@H](CCC(=O)O)NC(=O)[C@@H](NC(=O)[C@H](C)NC(=O)[C@@H]1CSSC[C@H](NC(=O)[C@H](CCCNC(=N)N)NC(=O)CC[C@H](NC(=O)CCCCCCCCCCCCCCCCCCC(=O)O)C(=O)O)C(=O)NCC(=O)N[C@@H]([C@@H](C)O)C(=O)N[C@@H](C)C(=O)N[C@@H]([C@@H](C)O)C(=O)N1)[C@@H](C)O) [[19CD]-isoGlu-R-C( )-GTAT-C( )-ATERLAHFLKRSSF-Gly(Me)-A-Ile(Me)-LSSTEVGSNT-Hyp-NH2 (Compd. 19)] | 0.28 nM
{C20 diacid-γGlu}-RCNTATCATQRLAHFLHRSSF[Sar]A[NMeI]LSSTEVGSNTP-NH2 (disulfide 2-7) [[19CD]-isoGlu-R-C( )-NTAT-C( )-ATQRLAHFLHRSSF-Gly(Me)-A-Ile(Me)-LSSTEVGSNTP-NH2 (Compd. 16)] | 0.11 nM
